From patent US20180094062A1 (Hoffmann-La Roche, published 2018) come the findings set out here.

The target of assay [1] is HER2, full length, on cells (transfected HEK293, MCF7) (human, UniProt P04626 23-1255). In words: IHC on HEK293 cells transiently transfected with full length HER2; NC = untransfected cells. Here is the method: (§1) All selected clones were tested for reactivity and specificity in IHC. […] After an additional fixation in formalin overnight the Agarose blocks were embedded in paraffin. Untransfected HEK293 cells were used as negative controls and treated accordingly to the transfected cells. After paraffin embedding 3 μm thin sections were prepared using a microtome. The sections were mounted on glass microscopy slides and dried for 2 h. All further steps of the immunohistochemical staining procedure were carried out using a Ventana Benchmark XT. The slides were dewaxed and antigen retrieval was performed by applying heat for 1 hour. For antigen retrieval the Ventana buffer CC1 was used. The antibodies were used at a concentration of 1 μg/ml. For the detection of bound antibody the Ventana UltraView detection kit was used.

For assay [2], the target named is T1, human recombinant HER3 Extracellular Domain (HER3 ECD) (human, UniProt P21860 20-643).
T1 construct: 68 kDa; also called human-Her3-ECD
In words: SPR Biacore 4000 kinetic screening, antibody captured, analyte 150 nM, 25 C. The method, then: (§2) In all assay the test antibodies were captured. The system was under the control of the software version V1.1. The instrument buffer was HBS-EP (10 mM HEPES (pH 7.4), 150 mM NaCl, 1 mM EDTA, 0.05% (w/v) P20). The system operated at 25° C. 30 μg/ml Rabbit polyclonal antibody (RAM IgG, (Rabbit anti Mouse IgG with Fc gamma specificity) GE Healthcare) in 10 mM sodium acetate buffer (pH 4.5) was immobilized using EDC/NHS chemistry according to the manufacturer's instructions on the spots 1, 2, 4 and 5 in the flow cells 1, 2, 3 and 4. The sensor was saturated using 1M ethanolamine. In each flow cell, referenced signals were calculated using spots 1-2 and spots 5-4, spot 3 served as a blanc control. […] Prior to their application the hybridoma culture supernatants were diluted 1:5 in instrument buffer. The diluted mixtures were injected at a flow rate of 30 μl/min for 2 min. The antibody capture level (CL) in response units was monitored. Immediately thereafter the respective antigen was injected at a flow rate of 30 μl/min for 3 min association time. Thereafter, the antibody-antigen complex dissociation signal was recorded for 5 min. The sensor was regenerated by injecting a 10 mM glycine-HCl solution (pH 1.7) for 2 min at a flow rate of 30 μl/min. The recorded signal shortly before the end of the injection of the antigen was denoted as binding late (BL) in response units. The recorded signal shortly before the end of the recording of the dissociation is denoted as stability late (SL) in response units. The dissociation rate constants were determined calculated The antibody-antigen complex stability in minutes was calculated with the following formula: […]. The Molar Ratio was calculated with the formula: MW (antibody)/MW (antigen) *BL (antigen)/CL (antibody).

Assay [3] concerns the target T2, recombinant Thermus thermophilus SlyD FKBP-Her3 (TtSlyD-FKBP-Her3).
T2 construct: expressed in E. coli, the N-terminal methionine can be present or not; also called thermo SlyD-Her3; T.T.SlyD-Her3
T2 chain: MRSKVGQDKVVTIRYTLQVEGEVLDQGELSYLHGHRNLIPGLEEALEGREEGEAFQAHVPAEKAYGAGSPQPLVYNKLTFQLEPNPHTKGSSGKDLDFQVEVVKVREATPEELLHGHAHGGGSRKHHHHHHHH
The assay is described as above. The method, then: as §2

Assay [4] has as its target HER4, full length, on transfected HEK293 cells (human, UniProt Q15303 26-1308). Description: IHC on HEK293 cells transiently transfected with full length HER4; NC = untransfected cells. Here is the method: as §1
The target of assay [5] is T3, HER1, full length, on transfected HEK293 cells (human, UniProt P00533 25-1210).
T3 construct: HEK293 transiently transfected with a plasmid coding for full length HER1; also called EGFR
Description: IHC on HEK293 cells transiently transfected with full length HER1; NC = untransfected cells. Here is the method:
as §1

In assay [6] the target is T1, human recombinant HER3 Extracellular …. Description: SPR Biacore T200, antibody captured, 25 C. The method, then: (§3) A Biacore T200 instrument (GE Healthcare) was mounted with a CM5 series sensor. The sensor was normalized in HBS-ET buffer (10 mM HEPES pH 7.4, 150 mM NaCl, 3 mM EDTA, 0.05% w/v Tween 20) according to the manufacturer's instructions. The sample buffer was the system buffer supplemented with 1 mg/ml CMD (Carboxymethyldextran, Sigma #86524). The system operated at 25° C. 6500 RU RAM-Fcγ (relative units of Fcγ-fragment RamlgG, GE Healthcare) were immobilized according to the manufacturer's instructions using amine coupling EDC/NHS chemistry on all four flow cells. The sensor was deactivated using 1M ethanolamine. […] Concentration dependent kinetics were measured. […] All analytes were injected for 5 min association time and 10 min dissociation time at 100 μl/min flow rate. The sensor capture system was regenerated by a 3 min injection at 10 μl/min of 10 mM glycine pH 1.7. Where possible kinetic data was evaluated using the Biacore T200 evaluation software.

For assay [7], the target named is T4, HER3 ECD-HRG complex (Heregulin-activated Her-3 ECD) (human, UniProt P21860 20-643).
T4 construct: receptor-ligand complex made by preincubating HER3 ECD with a five-fold molar excess of Heregulin; also called Heregulin/Her-3 ECD; Heregulin-complexed Her-3 ECD
Description: SPR Biacore T200, antibody captured, 25 C. Here is the method: as §3

A further assay deals with T5, TtSlyDcas.
T5 construct: negative control scaffold without the HER3 β-hairpin
T5 chain: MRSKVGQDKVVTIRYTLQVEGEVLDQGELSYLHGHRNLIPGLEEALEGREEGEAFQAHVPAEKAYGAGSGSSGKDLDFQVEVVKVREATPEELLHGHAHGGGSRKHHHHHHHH
In words: SPR Biacore T200, antibody captured, 25 C. Here is the method:
as §3

Assay [8] deals with T4, HER3 ECD-HRG complex …. In words: SPR, Interaction Map (TraceDrawer), two-state-kinetic no. 1, 25 C. The method, then: as §3

Chain of HER4, full length, on transfected HEK293 cells (Q15303 26-1308): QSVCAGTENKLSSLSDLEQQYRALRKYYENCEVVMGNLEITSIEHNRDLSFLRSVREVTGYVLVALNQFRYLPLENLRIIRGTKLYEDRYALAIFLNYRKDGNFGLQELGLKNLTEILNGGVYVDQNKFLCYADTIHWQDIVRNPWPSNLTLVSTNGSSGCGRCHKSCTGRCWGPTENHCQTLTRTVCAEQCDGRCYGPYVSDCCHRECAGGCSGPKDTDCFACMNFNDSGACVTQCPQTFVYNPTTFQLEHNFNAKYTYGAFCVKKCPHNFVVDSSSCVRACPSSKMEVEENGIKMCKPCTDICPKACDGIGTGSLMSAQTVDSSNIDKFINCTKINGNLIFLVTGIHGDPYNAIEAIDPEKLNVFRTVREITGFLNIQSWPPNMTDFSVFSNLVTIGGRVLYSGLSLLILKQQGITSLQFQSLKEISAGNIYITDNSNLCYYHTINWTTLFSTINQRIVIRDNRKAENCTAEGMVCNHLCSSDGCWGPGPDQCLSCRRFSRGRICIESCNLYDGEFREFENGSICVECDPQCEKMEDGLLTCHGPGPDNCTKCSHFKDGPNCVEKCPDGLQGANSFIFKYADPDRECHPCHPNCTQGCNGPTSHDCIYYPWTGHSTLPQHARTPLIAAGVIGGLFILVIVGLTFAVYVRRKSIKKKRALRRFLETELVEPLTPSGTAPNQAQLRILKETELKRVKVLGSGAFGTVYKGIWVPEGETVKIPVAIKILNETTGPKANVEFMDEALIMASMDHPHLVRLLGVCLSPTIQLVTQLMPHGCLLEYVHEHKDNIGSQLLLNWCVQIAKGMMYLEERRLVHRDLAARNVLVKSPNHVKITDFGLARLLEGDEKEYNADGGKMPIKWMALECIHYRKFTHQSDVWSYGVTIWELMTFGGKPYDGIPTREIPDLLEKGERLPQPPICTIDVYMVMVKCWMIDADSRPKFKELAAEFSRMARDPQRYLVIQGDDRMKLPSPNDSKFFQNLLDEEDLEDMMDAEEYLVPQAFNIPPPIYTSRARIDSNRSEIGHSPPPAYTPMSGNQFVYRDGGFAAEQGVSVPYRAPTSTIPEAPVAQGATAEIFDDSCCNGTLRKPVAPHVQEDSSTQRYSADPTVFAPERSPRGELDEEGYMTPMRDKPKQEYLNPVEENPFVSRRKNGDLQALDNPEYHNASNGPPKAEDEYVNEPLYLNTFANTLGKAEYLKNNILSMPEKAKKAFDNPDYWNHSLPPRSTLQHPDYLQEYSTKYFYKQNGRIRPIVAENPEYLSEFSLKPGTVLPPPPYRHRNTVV

B1: anti-HER3 antibody M-17-02 (antibody, V domains shown)
VH: EVQLQQSGTVLARPGASVKMSCKASGYSFTSYWIHWVKQRPGQGLEWIGAIYPGNSDTTYNQKFKGKAKLTAVTSASTAYMELSSLTNEDSAVYYCARTGVWTSYYFDYWGQGTTLTVSS
VL: DIQMTQSPASLSASVGETVTITCRASENIYSNLAWYQQKQGKSPQLLVYAATNLADGVPSRFSGSGSGTQFSLRINSLQPEDFGSYYCQHFYGTPFTFGTGTKLEIK
notes: mouse hybridoma clone
Take B1: the binding result in [1] is recorded as “no binding”. Further, in assay [2], the “BL (binding late)” value amounted to 10 RU, the “MR (Molar Ratio)” value was found to be 0.1 and the “SL (stability late)” value was 10 RU. In assay [3], the “BL (binding late)” value came to 52 RU, the “MR (Molar Ratio)” value amounted to 1.7, the “SL (stability late)” value came out at 50 RU and the koff was determined as 0.0002 s⁻¹. For the same molecule, the t/2 diss in assay [3] came to 59 min. Also, the binding result in assay [4] was “no binding”. In addition, the binding result in assay [5] was “no binding”.

B2: anti-HER3 antibody M-43-01 (antibody, V domains shown)
VH: EVQLQQSGTVLARPGASVKMSCKASDYTFSNYWVHWVKQRPGQGLEWIGAIYPGNGDSTYYQKFKGKATLTAVTSTSTAYMDLSSLTNGDSAVYFCTRSGVGYNYYFDYWGQGTTLTVSS
VL: DIQMTQSPASLSASVGETVTITCRASENIYSNLAWYQQKQGKSPQLLVYIATNLADGVPSRFSGSGSGTQFSLKINSLQPEDLGSYYCQHFYGTPFTFGTGTKLEIE
notes: mouse hybridoma clone
Turning to B2, in assay [6], the Kd amounted to 5.2 nM, the “MR (Molar Ratio)” value was found to be 0.1, the koff was 0.00055 s⁻¹ and the kon was found to be 110000 M⁻¹ s⁻¹. Besides, the “MR (Molar Ratio)” value in assay [7] was 0.3. For the same molecule, in the assay with TtSlyDcas, the “MR (Molar Ratio)” value turned out to be 0 and the binding result is “no binding (tested: 90 nM)”. For the same molecule, the binding result in assay [1] was “no binding”. Also, in assay [8], the Kd turned out to be 261 nM, the “Weight (contribution to the overall interaction)” value (shortened to “Weight”) was 69%, the koff was 0.141 s⁻¹ and the kon came to 541000 M⁻¹ s⁻¹. In [2], the “BL (binding late)” value amounted to 9 RU, the “MR (Molar Ratio)” value was 0.1, the “SL (stability late)” value worked out at 8 RU and the koff came out at 0.00066 s⁻¹. The t/2 diss in assay [2] is 18 min. Moreover, in assay [3], the “BL (binding late)” value came to 53 RU, the “MR (Molar Ratio)” value was found to be 1.7, the “SL (stability late)” value amounted to 51 RU and the koff was found to be 0.00016 s⁻¹. In assay [3], the t/2 diss stood at 73 min. In assay [4], the binding result is listed as “no binding”. For the same molecule, in assay [5], the binding result was “no binding”.

B3: anti-HER3 antibody M-46-01 (antibody, V domains shown)
VH: QIQLQQSGPQLVRPGASVKISCKASGYSFTSYWMHWVKQRPGRGLEWIGMIDPSDGVTRLNQKFKDKATLTVDNSSSTAYMQLSSPTSEDSAVHYCARVDVLYWYFDVWGAGTTVTVSS
VL: DIVLTQSPASLAVSLGQRATISCRASKSISISGYSYMHWYQQKAGQPPKLLIYLTSNLESGVPARFSGSGSGTDFTLNIHPVEEEDAATYYCHHSRELPFTFGSGTKLEIK
notes: mouse hybridoma clone
B3: in assay [6], the Kd came out at 3.8 nM, the “MR (Molar Ratio)” value was 0.2, the koff turned out to be 0.0004 s⁻¹ and the kon stood at 100000 M⁻¹ s⁻¹. Also, the “MR (Molar Ratio)” value in assay [7] came to 0.9. Besides, in the assay with TtSlyDcas, the “MR (Molar Ratio)” value was determined as 0 and the binding result is reported as “no binding (tested: 90 nM)”. Moreover, the binding result in assay [1] is “no binding”. In assay [8], the Kd is 356 nM, the “Weight” value was 77%, the koff was 0.232 s⁻¹ and the kon came to 652000 M⁻¹ s⁻¹. Also, in assay [2], the “BL (binding late)” value was determined as 21 RU, the “MR (Molar Ratio)” value stood at 0.2, the “SL (stability late)” value was 17 RU and the off-rate (koff) turned out to be 0.00041 s⁻¹. Moreover, in assay [2], the t/2 diss is 28 min. Besides, in assay [3], the “BL (binding late)” value came out at 80 RU, the “MR (Molar Ratio)” value was found to be 1.8, the “SL (stability late)” value was determined as 71 RU and the off-rate constant (koff) was 0.00028 s⁻¹. Moreover, the t/2 diss in [3] worked out at 41 min. Moreover, the binding result in assay [4] is listed as “no binding”. Further, the binding result in assay [5] is given as “no binding”.

B4: anti-HER3 antibody M-08-11 (antibody, V domains shown)
VH: QAYLQQSGAELMRPGASVRMSCQASGYTFTSYTIHWLKQTPRQGLEWIGAIYPRNGDFSYNQKFKDKASLTVDTSSSTAYMHLSSLTSEDSAVYFCARTINYGDWFAYWGQGTLVTVSA
VL: DIQMIQSPASLFVSEGETVIITCRASENIYSNLAWYHQKKGKSPQVLVYAAIKLADGVPLRFSGSGSGTQFSLKINSLQSEDFGSYYCQHFWGPPYTFGSGTNLEIK
notes: mouse monoclonal antibody from hybridoma, tested as hybridoma supernatant or as antibody; also called M-011
In the case of B4, in assay [6], the dissociation constant Kd came out at 3.5 nM, the “MR (Molar Ratio)” value came to 0.1, the koff turned out to be 0.00037 s⁻¹ and the kon is 110000 M⁻¹ s⁻¹. In addition, in [7], the “MR (Molar Ratio)” value is 0.7. In addition, in the assay with TtSlyDcas, the “MR (Molar Ratio)” value turned out to be 0 and the binding result is given as “no binding (tested: 90 nM)”. Moreover, the binding result in assay [1] is “no binding”. Further, in assay [8], the Kd was found to be 419 nM, the “Weight” value stood at 79%, the koff was determined as 0.0799 s⁻¹ and the kon came to 191000 M⁻¹ s⁻¹. Further, in assay [2], the “BL (binding late)” value turned out to be 61 RU, the “MR (Molar Ratio)” value worked out at 0.4, the “SL (stability late)” value stood at 62 RU and the koff was determined as 4.11e-05 s⁻¹. Further, in assay [2], the t/2 diss was 281 min. Moreover, in [3], the “BL (binding late)” value worked out at 46 RU, the “MR (Molar Ratio)” value was determined as 1.3, the “SL (stability late)” value was determined as 45 RU and the koff turned out to be 0.000102 s⁻¹. The t/2 diss in assay [3] was 114 min. Besides, the binding result in assay [4] is reported as “no binding”.
